Measurements from the Human Domainome abundance scans (Beltran et al. 2025).

B1: POU domain, class 2, transcription factor 3, residues 186 to 260; numbered along this chain, Q9UKI9 (parent)
chain: SDLEELEKFAKTFKQRRIKLGFTQGDVGLAMGKLYGNDFSQTTISRFEALNLSFKNMCKLKPLLEKWLNDAESSP

Variants of: B1
Experiment: abundance fitness (aPCA) (normalised: wild type 0, dead -1); higher = more abundant; growth selection in yeast, the domain comes from the species named
Details: Homo sapiens

Abundance fitness, by site and new letter:
D70: C -0.201; P -0.405; E 0.027; V -0.096
N69: V -0.028; P -0.326; T 0.033; G 0.042; D 0.026; H 0.083; E 0.002; Q 0.033; M -0.008; F 0.061; L -0.068; K -0.125; S 0.006; Y -0.081; I 0.018; W 0.014; A -0.029
N56: S -0.035; V -0.082; L -0.008; E -0.001; C -0.016; G -0.05; T 0.093; Q 0.046; D 0.008; Y -0.022; K -0.024; H 0.014; M 0.045; A 0.018; R 0.009; P -0.206; I -0.034; F -0.058; W 0.014
W67: I -0.419; Q -0.761; D -0.706; S -0.741; Y 0.005; E -0.696; A -0.603; M -0.306; L -0.246; G -0.804; H -0.44; F -0.004; R -0.731; T -0.612; C -0.282; N -0.909
L64: G -0.784; S -0.743; F -0.135; R -0.83; N -0.776; Q -0.836; T -0.462; Y -0.221; C -0.148; D -0.557; E -0.888; V -0.197; P -0.802; W -0.981; K -1.01; I -0.224
L68: D -0.733; K -0.809; S -0.285; R -0.626; E -0.564; G -0.563; N -0.673; P -0.749; H -0.358; W -0.43; T -0.317; C -0.153; F -0.312; M -0.109; Y -0.298; V -0.052; Q -0.311; I 0.006; A -0.114
N51: W -0.282; V -0.1; T 0.007; Y -0.188; S 0.043; Q -0.011
M57: V -0.202; A -0.024; R -0.608; Y -0.496; Q -0.318; H -0.811; W -0.27; G -0.172; N -0.167; D -0.451; I -0.305; E -0.814; P -0.8; S -0.02; F -0.222; C -0.166; L -0.021; T -0.25; K -0.396
S53: G 0.015; R -0.093; W -0.958; I -0.556; K -0.091; H -0.205; Q -0.077; T 0.002; N 0.03; F -0.66; E -0.061; D -0.04; P -0.032; V -0.598; L -0.768; M -0.608
K66: E -0.061; W -0.161; I -0.142; G -0.038; Y -0.132; S -0.147; D 0.018; N -0.019; M -0.157; A -0.055; F -0.248; Q -0.036; H -0.104; R -0.024; T -0.007; V -0.066; C -0.063; P -0.544
C58: P -0.474; H -0.052; S 0.026; G -0.031; R 0; T -0.09; E -0.039; F 0.005; W 0.032; K -0.058; D -0.04; I 0.01; N -0.005; L -0.02; A 0.027; M -0.005; V -0.019
